Results from the supplement of paper PMC9170038.

Test system: MS2 coat protein
Assay: apparent KD of MS2 coat protein; designed switch direction (-1 OFF switch, 1 ON switch): -1; higher = weaker reporter binding
Summary of the method: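 For each design, the apparent KD is the median over clusters of curves fitted to normalised cluster fluorescence. Clusters held RNA switches with common flanks, transcribed on Illumina chips by stalled E. coli RNA polymerase. These were titrated with SNAP-549-labelled MS2 coat protein, doubling from 0.7 or 1.5 nM to 3 µM, without input, with 200 uM small-molecule ligand, or with an oligonucleotide input.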

[1] = input ligand: microRNA oligo, concentration not stated
[2] = Eterna round: R95, input ligand: FMN 200 uM
[3] = Eterna round: R95, input ligand: microRNA oligo, concentration not stated
[4] = Eterna round: R95, input ligand: none

Row | Sequence | apparent KD of MS2 coat protein (input ligand: FMN 200 uM) [nM] | apparent KD of MS2 coat protein (input ligand: none) [nM] | apparent KD of MS2 coat protein [1] [nM] | apparent KD of MS2 coat protein [2] [nM] | apparent KD of MS2 coat protein [3] [nM] | apparent KD of MS2 coat protein [4] [nM]
1 | GUCAGACGAGGAUAUAAACGAUAUAACAUGAGGAUCACCCAUGUACGAUCGAAUGAUCGUUUAGAAGGCGUCUGAC [E5/10-A4] (Eterna round: R97, puzzle: Exclusion 5) | 17.3 | 16.7 | – | – | – | –
2 | GUUGUUUAUGUAGGAUAUGCCUGGCGUGCCUUUGCAGAAGGACAUGAGGAUCACCCAUGUAUUGCGGUCUGCGUUCAGAUCGCU [salish99_ExNG1_r4_022] (Eterna round: R96, puzzle: Exclusion NG 1) | 45.6 | 34.8 | 26.2 | – | – | –
3 | GCUAGGCAUGUCAGGAUAUGCUGUACCUUGGUACAGCAGAAGGGACAUGAGGAUCACCCAUGUGCCUACCUAGC [JL-BMX4-4.04] (Eterna round: R97, puzzle: Brourd's mod of Exclusion 4) | 173 | 28.3 | – | – | – | –
4 | GUGAGUAGUCAGGAUAUGCUGUACAAAAGUACAGCAGAAGGGAUUACAUGAGGAUCACCCAUGUUUACUUCGUG [Omei Ex6 B3] (Eterna round: R97, puzzle: Exclusion 6) | 105 | 29.7 | – | – | – | –
5 | AGAUGACUGGAGGAUAUCCGAUGCUUCCUGCCAGGAGAAGGCCGGACAUGAGGAUCACCCAUGUGGUGAGCUCG [Vezaatinle] (puzzle: Exclusion 6) | – | – | – | 329 | 347 | 444
6 | AAUAACAAGCAGAUCCUCCACAUGAGGAUCACCCAUGUGCUCGUCUUGUAAAGUACUAUCACGAAAGUGAUAGUACA (Eterna round: R97, puzzle: Sensor, turn-off variant 1) | 724 | 718 | – | – | – | –
7 | CAUAGUUACUCAGGAUAUAGUACAUGAGGAUCACCCAUGUAAUAAAUGAGAAUUUCGAAUGUAUACUAGAAGGGAGAAAUCUAC [Ostracism 55 - Jieux - Exclusion NG 2] (Eterna round: R96, puzzle: Exclusion NG 2) | 44.5 | 46.1 | 35.8 | – | – | –
8 | AGCCAAGCAGGAUAUACCCGGGAUAACAUGAGGAUCACCCAUGUGACCGAUUGAUGUCCUGUAGAAGGGCUUGGGA [Mod of ViennaUCT 21 - Jieux - Exclusion 5] (Eterna round: R97, puzzle: Exclusion 5) | 78.1 | 28.3 | – | – | – | –
9 | CUUGUUUAUGUGAGGAUAUACUGUUAGUAAUGUUUGUAGAAGGUACAUGAGGAUCACCCAUGUUUAUUUUUUUU [JR_BME4_Sub044] (puzzle: Brourd's mod of Exclusion 4) | – | – | – | – | 20.2 | –
10 | GGCAUCGGAGGAUAUACUAAUGGUGAUGCCCGAAGCUUUCUACUUGAGGAUCACCCAAGUAGAAGGCCGAUGCC [jl-ex2.4.80 ViennaUCT mod] (Eterna round: R97, puzzle: Exclusion 2) | 11 | 13.1 | – | – | – | –
11 | UAUAGGCUAGGAUAUACAACACUUGGUUCGAAUGUUUGGAGACAUGAGGAUCACCCAUGUAGAAGGAGCAUUUC [Leleis] (Eterna round: R96, puzzle: Exclusion 2) | 264 | 66.5 | 54 | – | – | –
12 | AAAGAAACAGGAUAUGUAGGCUGCGACAUGAGGAUCACCCAUGUGUCGGUAUACAGUCCUAUAGAAGGGUUAUGAC [Tieder] (puzzle: Exclusion 5) | – | – | – | – | 13.1 | –
13 | UUCGUGCAGCUUUGCUGUACGCGUACAUGAGGAUCACCCAUGUAGGAUAUGGUACGCUUUGCGUGCUAGAAGGAUAUGUGGAGG [JL EXNG3 1.35] (Eterna round: R96, puzzle: Exclusion NG 3) | 59.1 | 45.2 | 33.6 | – | – | –
14 | GAGAGGUCAGGAUAUACGGAGAGAGAGAGUAGGUGAGGGUAACAUGAGGAUCACCCAUGUAGAAGGGACUAAGG [JR_Exclu2_Sub075] (puzzle: Exclusion 2) | – | – | – | 51.7 | 48.4 | 46.3
15 | UGUAUUAGGUCAGGAUAUACAUGAGGAUCACCCAUGUACAUGGAGCGAGUACAGUAUCAUGCAAGGUAGAAGGGACAGUCGACG [success! :D] (Eterna round: R96, puzzle: Exclusion NG 2) | 21.6 | 24.3 | 15.7 | – | – | –
16 | CCGACAAGCUGCUAAGGAUACAUGAGGAUCACCCAUGUCGGUAUCCGAGAGGUAUUGAAGUCAACCAUCGCUCGUCU [Eternabot (Original) Solution 49] (Eterna round: R97, puzzle: Sensor, turn-off variant 1) | 167 | 188 | – | – | – | –
17 | UUGUUUUCCGCAGGAUAUGCUCCUCCAUUACUAGCAGAAGGGCGUUGAACAUGAGGAUCACCCAUGUAUGUAAUUGCUUAUUGC [JR_ExcNG1_Sub073] (Eterna round: R96, puzzle: Exclusion NG 1) | 19.7 | 18.9 | 14.8 | – | – | –

Row | Sequence | apparent KD of MS2 coat protein (input ligand: FMN 200 uM) [nM] | apparent KD of MS2 coat protein (input ligand: none) [nM] | apparent KD of MS2 coat protein [1] [nM] | apparent KD of MS2 coat protein [2] [nM] | apparent KD of MS2 coat protein [3] [nM] | apparent KD of MS2 coat protein [4] [nM]
18 | AAUUAUUUAUGAGGAUAUUGUGGUGAAACACCACAAGAAGGCAUGAUACACAUGAGGAUCACCCAUGUGAGCCUUAUGCAUAUA [Ex NG1 #57] (Eterna round: R96, puzzle: Exclusion NG 1) | – | – | 16.5 | – | – | –
19 | AUUAAAACAUAGGAUAUCGAAAUUAUUAUUUAACGAGAAGGAUGAACAUGAGGAUCACCCAUGUGGUAUCAUGG [Mat - Exclusion 6 - JL Mod - D28] (puzzle: Exclusion 6) | – | – | – | 307 | 367 | 610
20 | CAAAAGCUAGGAUAUACAUGAGGAUCACCCAUGUCGCACUCUAGACACGCCAUACAUAGUAGAAGGAGCAAUCU [EX3 B.18] (Eterna round: R97, puzzle: Exclusion 3) | 21.7 | 17.9 | – | – | – | –
21 | CUUUUGUGAGGAUAUCAGUAGUAAAUAAUUAAAAUUACUACUGAGAAGGCACAUGAGGAUCACCCAUGUUCCUC [salish99_ex3_r3_080] (puzzle: Exclusion 4) | – | – | – | – | 40.3 | –
22 | CUUUUCAGAGGAUAUAGAUAUUAUCACAUGAGGAUCACCCAUGUAACCCUACAUUCACCACUAGAAGGCUGUUAAG [lam1] (Eterna round: R97, puzzle: Exclusion 5) | 27.1 | 48.5 | – | – | – | –
23 | AGGUGCUUCUGGAGACAUGAGGAUCACCCAUGUUGAGUUAGCGAGGAUAUCGGUAAUGCAUGUGAUGAGAAGGCGCAAACCGAU [Ex NG3 #48] (Eterna round: R96, puzzle: Exclusion NG 3) | 36.8 | 46.1 | 40.3 | – | – | –
24 | GGCCGGCGAGGAUAUACCGAAUGAAGGUGAUAUGAAUGAUUACAUGAGGAUCACCCAUGUAGAAGGCGCCGGCC [Default title] (Eterna round: R97, puzzle: Exclusion 2) | 327 | 146 | – | – | – | –
25 | GGUGGACAUGAGGAUCACCCAUGUGAGGAUAUCGGCUGGCUAGCGGCGGACGGCUUCUCGAGAAGGCGCAUUGU [Exclusion 1 V83] (Eterna round: R96, puzzle: Exclusion 1) | 68.8 | 64.5 | 42.2 | – | – | –
26 | GGUUCGAGUGUGAGGAUAUGCUGGUCCUUGGAUCAGCAGAAGGCACAUGAGGAUCACCCAUGUGGUAACGGACC [Mat - Exclusion 4 - Eli Mod - D35] (Eterna round: R97, puzzle: Brourd's mod of Exclusion 4) | 263 | 331 | – | – | – | –
27 | GGUGGCUACGUGAGACAUGAGGAUCACCCAUGUUACCGAACGAAGGAUAUAGAAGCACAUAGCUACUAGAAGGUUGAAAAGAAA [Laeratveti] (Eterna round: R96, puzzle: Exclusion NG 3) | 22.6 | 29.9 | 24.1 | – | – | –
28 | UAAACUUGCUUCCGAUCCUACAUGAGGAUCACCCAUGUGCUCGUCUUGUAUCGUACUGUGACGUUAGUCACGGUACG [mod my first] (Eterna round: R97, puzzle: Sensor, turn-off variant 1) | 477 | 464 | – | – | – | –
29 | ACAUGUUAUGUAGGAUAUUGGACACAUGAGGAUCACCCAUGUACCCGGAGGCUUUACUAUGAGUUCGAGAAGGGUAUGUACAUG [Ex NG2 #69] (Eterna round: R96, puzzle: Exclusion NG 2) | 35.3 | 47.1 | 33.7 | – | – | –
30 | AAACCUGAAGUUAGGAUAUGAAGUAUCACUAUACUUCAGAAGGAACUUGAGGAUCACCCAAGUAGCCGUGAGGC [jl-bmx4.4.66 ViennaUCT mod] (Eterna round: R97, puzzle: Brourd's mod of Exclusion 4) | 110 | 23 | – | – | – | –
31 | GUCAGCUCGUGAGGAUAUACAUGAGGAUCACCCAUGUGAUCAAUAGCAGCUUCGGCUGCAUUAAUGUAGAAGGUACGAGCUGAU [ENG2/5-C2] (Eterna round: R96, puzzle: Exclusion NG 2) | 105 | 463 | 231 | – | – | –
32 | AAAACAGUGUAGGAUAUGGCUGGGCUGAAAAUGCUAGAAGGACACACAUGAGGAUCACCCAUGUGACUUCGUGC [Atri] (puzzle: Exclusion 6) | – | – | – | – | 12.5 | –
33 | AAUAACAGAGGAUAUACUGUUUUAUGUGUUUGUUAUUUUGAACAUGAGGAUCACCCAUGUAGAAGGCUGAUUGA [JMF 76] (puzzle: Exclusion 2) | – | – | – | – | 46 | –
34 | UGUUGUCGCGCAGGAUAUGCAUGAGGAUCACCCAUGCAAUUAGAGUUAACAUGAGGAUCACCCAUGUAGAAGGGCGGGACAACU [pwkr exNG2 2xF5 1xFMN.5] (Eterna round: R96, puzzle: Exclusion NG 2) | 65.1 | 54.2 | 27.6 | – | – | –
